From PMC2857095

Substrate: Nc1ncnc2c1ncn2[C@@H]1O[C@H](COP(=O)(O)OP(=O)(O)OP(=O)(O)O)[C@@H](O)[C@H]1O
Experiment: purified protein
Settings: no DNA, 100 mM MgCl2

B1: MutS (Escherichia coli K-12) (protein)
chain: MSAIENFDAHTPMMQQYLRLKAQHPEILLFYRMGDFYELFYDDAKRASQLLDISLTKRGASAGEPIPMAGIPYHAVENYLAKLVNQGESVAICEQIGDPATSKGPVERKVVRIVTPGTISDEALLQERQDNLLAAIWQDSKGFGYATLDISSGRFRLSEPADRETMAAELQRTNPAELLYAEDFAEMSLIEGRRGLRRRPLWEFEIDTARQQLNLQFGTRDLVGFGVENAPRGLCAAGCLLQYAKDTQRTTLPHIRSITMEREQDSIIMDAATRRNLEITQNLAGGAENTLASVLDCTVTPMGSRMLKRWLHMPVRDTRVLLERQQTIGALQDFTAGLQPVLRQVGDLERILARLALRTARPRDLARMRHAFQQLPELRAQLETVDSAPVQALREKMGEFAELRDLLERAIIDTPPVLVRDGGVIASGYNEELDEWRALADGATDYLERLEVRERERTGLDTLKVGFNAVHGYYIQISRGQSHLAPINYMRRQTLKNAERYIIPELKEYEDKVLTSKGKALALEKQLYEELFDLLLPHLEALQQSASALAELDVLVNLAERAYTLNYTCPTFIDKPGIRITEGRHPVVEQVLNEPFIANPLNLSPQRRMLIITGPNMGGKSTYMRQTALIALMAYIGSYVPAQKVEIGPIDRIFTRVGAADDLASGRSTFMVEMTETANILHNATEYSLVLMDEIGRGTSTYDGLSLAWACAENLANKIKALTLFATHYFELTQLPEKMEGVANVHLDALEHGDTIAFMHSVQDGAASKSYGLAVAALAGVPKEVIKRARQKLRELESISPNAAATQVDGTQMSLLSVPEETSPAVEALENLDPDSLTPRQALEWIYRLKSLV
With B1 the Km (low affinity site) was 6.8 ± 0.6 µM and the kcat (low affinity site) was 0.0317 ± 0.00067 s⁻¹.

B2: MutS (Escherichia coli K-12; D693N) (protein)
chain: MSAIENFDAHTPMMQQYLRLKAQHPEILLFYRMGDFYELFYDDAKRASQLLDISLTKRGASAGEPIPMAGIPYHAVENYLAKLVNQGESVAICEQIGDPATSKGPVERKVVRIVTPGTISDEALLQERQDNLLAAIWQDSKGFGYATLDISSGRFRLSEPADRETMAAELQRTNPAELLYAEDFAEMSLIEGRRGLRRRPLWEFEIDTARQQLNLQFGTRDLVGFGVENAPRGLCAAGCLLQYAKDTQRTTLPHIRSITMEREQDSIIMDAATRRNLEITQNLAGGAENTLASVLDCTVTPMGSRMLKRWLHMPVRDTRVLLERQQTIGALQDFTAGLQPVLRQVGDLERILARLALRTARPRDLARMRHAFQQLPELRAQLETVDSAPVQALREKMGEFAELRDLLERAIIDTPPVLVRDGGVIASGYNEELDEWRALADGATDYLERLEVRERERTGLDTLKVGFNAVHGYYIQISRGQSHLAPINYMRRQTLKNAERYIIPELKEYEDKVLTSKGKALALEKQLYEELFDLLLPHLEALQQSASALAELDVLVNLAERAYTLNYTCPTFIDKPGIRITEGRHPVVEQVLNEPFIANPLNLSPQRRMLIITGPNMGGKSTYMRQTALIALMAYIGSYVPAQKVEIGPIDRIFTRVGAADDLASGRSTFMVEMTETANILHNATEYSLVLMNEIGRGTSTYDGLSLAWACAENLANKIKALTLFATHYFELTQLPEKMEGVANVHLDALEHGDTIAFMHSVQDGAASKSYGLAVAALAGVPKEVIKRARQKLRELESISPNAAATQVDGTQMSLLSVPEETSPAVEALENLDPDSLTPRQALEWIYRLKSLV
With B2 the Km (kcat unit not printed beside value) was 34 µM.
